Results from patent publication US20260265412A1.

How the values were obtained:
[1] = biological target: human MASP3-His (human) (UniProt P48740); test: cell-based or functional assay
[2] = biological target: MASP3 in Factor D depleted human plasma (human) (UniProt P48740); test: cell-based or functional assay
MASP3 in Factor D depleted human plasma (human), sequence (P48740 other isoform, or with tags, fused parts or gaps): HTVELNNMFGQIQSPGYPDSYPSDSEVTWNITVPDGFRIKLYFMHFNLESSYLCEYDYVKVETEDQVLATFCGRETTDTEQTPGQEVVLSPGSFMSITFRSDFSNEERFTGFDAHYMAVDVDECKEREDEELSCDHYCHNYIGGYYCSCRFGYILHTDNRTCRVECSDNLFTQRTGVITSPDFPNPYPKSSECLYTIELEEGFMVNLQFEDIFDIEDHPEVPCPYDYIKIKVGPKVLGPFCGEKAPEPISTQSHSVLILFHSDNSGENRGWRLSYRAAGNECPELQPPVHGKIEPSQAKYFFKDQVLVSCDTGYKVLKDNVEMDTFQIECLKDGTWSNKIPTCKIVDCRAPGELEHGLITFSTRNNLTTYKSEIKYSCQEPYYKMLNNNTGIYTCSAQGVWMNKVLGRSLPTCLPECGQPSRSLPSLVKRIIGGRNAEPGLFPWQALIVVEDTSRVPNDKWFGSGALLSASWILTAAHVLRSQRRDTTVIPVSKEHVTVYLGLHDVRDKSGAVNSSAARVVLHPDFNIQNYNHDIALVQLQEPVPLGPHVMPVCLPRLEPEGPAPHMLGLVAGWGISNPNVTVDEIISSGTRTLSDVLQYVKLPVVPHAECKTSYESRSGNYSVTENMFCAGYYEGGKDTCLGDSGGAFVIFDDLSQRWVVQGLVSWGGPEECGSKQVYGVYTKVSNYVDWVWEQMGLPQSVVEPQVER

human MASP3-His (human), sequence (P48740 other isoform, or with tags, fused parts or gaps): as above

Work on OMS906 (antibody) yielded an IC50 of inhibition of MASP3 enzymatic activity (cleavage of fluorescent tripeptide Boc-Val-Pro-Arg-AMC) [1] of 0.2 µM, an Inhibit Hemolysis IC50 (alternative pathway, rabbit or guinea pig red blood cells) [2] of 0.013 µM and an Inhibit hemolysis IC50 (alternative pathway) [2] of 0.0171 µM.
